Assay results reported in patent US20230256092A1, “COMBINED USE OF ANTI-CCR8 ANTIBODY AND CHEMOTHERAPEUTIC AGENT” (Shionogi & Co., Ltd., priority 2020, published 2023).
Where a chain is given by its changes, count along the chain named. Values belong to the molecule of their own block, whether it stands above or below them.

Experiments:
human CCR4 = target: T1, human CCR4 (Homo sapiens, UniProt P51679); assay: Antigen-binding test on transiently expressing Expi293 cells; set-up: key: an antibody having significantly reduced binding activity was indicated as A; an antibody having binding activity of the detection limit or less was indicated as x; The blank column means that it exhibits the same binding activity as the wild-type human CCR8 (hCCR8); details: 5, 0.5 and 0.05 ug/mL, in comparison to wild-type hCCR8
T1 construct: expressed in transfected cells; host or cells: Expi293 cells, pcDNA 3.4 vector, transient
T1 sequence (P51679 1-360): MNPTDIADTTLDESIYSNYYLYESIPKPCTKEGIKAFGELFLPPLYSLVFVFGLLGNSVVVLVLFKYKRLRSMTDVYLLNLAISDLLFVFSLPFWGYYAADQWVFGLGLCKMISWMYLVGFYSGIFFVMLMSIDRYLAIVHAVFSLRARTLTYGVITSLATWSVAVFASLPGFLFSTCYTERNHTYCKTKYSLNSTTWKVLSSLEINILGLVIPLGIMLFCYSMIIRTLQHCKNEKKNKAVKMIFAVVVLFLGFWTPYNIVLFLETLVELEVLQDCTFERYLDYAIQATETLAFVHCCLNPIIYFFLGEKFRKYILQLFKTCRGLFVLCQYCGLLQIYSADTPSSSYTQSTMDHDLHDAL
From the text: (§1) The gene encoding the full length of human CCR8 (UniProtKB/Swiss-Prot: P51685, SEQ ID NO: 1), the gene encoding the full length of human CCR4 (UniProtKB/Swiss-Prot: P51679, SEQ ID NO: 48) and the gene encoding the full length of mouse CCR8 (UniProtKB/Swiss-Prot: P56484, SEQ ID NO: 39) were cloned into pcDNA 3.4 vectors, respectively. These vectors were used for transfection to produce Expi293 cells transiently expressing human CCR8, human CCR4, or mouse CCR8. These cells were reacted with a dilution series of the purified antibodies of each clone, and the binding properties thereof were evaluated by detection with Alexa488-labeled anti-mouse IgG antibody (manufactured by Thermo Fisher Scientific). As a result, every antibody bound to human CCR8, but not to human CCR4 and mouse CCR8 at all.

mouse CCR8 = target: T2, mouse CCR8 (Mus musculus, UniProt P56484); assay: as above; set-up: key: an antibody having significantly reduced binding activity was indicated as A; an antibody having binding activity of the detection limit or less was indicated as x; The blank column means that it exhibits the same binding activity as the wild-type human CCR8 (hCCR8); details: 5, 0.5 and 0.05 ug/mL, in comparison to wild-type hCCR8
T2 construct: expressed in transfected cells; host or cells: Expi293 cells, pcDNA 3.4 vector, transient
T2 sequence (P56484 1-353): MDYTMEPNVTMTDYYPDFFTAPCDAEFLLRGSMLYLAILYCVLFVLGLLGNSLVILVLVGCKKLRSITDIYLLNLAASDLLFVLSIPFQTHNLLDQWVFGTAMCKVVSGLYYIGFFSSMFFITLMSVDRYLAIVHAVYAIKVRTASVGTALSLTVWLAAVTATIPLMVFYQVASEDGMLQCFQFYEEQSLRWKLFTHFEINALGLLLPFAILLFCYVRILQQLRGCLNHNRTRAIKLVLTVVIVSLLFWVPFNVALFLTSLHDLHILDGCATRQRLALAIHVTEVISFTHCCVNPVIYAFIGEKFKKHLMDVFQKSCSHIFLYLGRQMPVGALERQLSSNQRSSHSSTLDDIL
From the text: as §1

loop1 hCCR4-hCCR8 = target: T3, loop1 hCCR4-hCCR8 (Homo sapiens, UniProt P51685, L95A/L96A/M105L/T103L/V104G); assay: Antigen-binding test, chimera; details: 5, 0.5 and 0.05 ug/mL, in comparison to wild-type hCCR8
T3 construct: expressed in transfected cells; host or cells: Expi293 cells (method similar to that for the wild type)

loop2 hCCR4-hCCR8 = target: T4, loop2 hCCR4-hCCR8 (Homo sapiens, UniProt P51685, A175Y/D178R/F186K/F197L/F200L/G179N/I196V/K193T/K201E/L181T/L192T/M202I/N188S/N199S/Q173T/Q182Y/Q189L/Q190N/S176T/S185T/T191S/T198S/V174C/V180H/Y172S/Y184K); assay: Antigen-binding test, chimera; details: 5, 0.5 and 0.05 ug/mL, in comparison to wild-type hCCR8
T4 construct: expressed in transfected cells; host or cells: Expi293 cells (method similar to that for the wild type)

hCCR8 (L5A) = target: T5, hCCR8 (L5A) (Homo sapiens, UniProt P51685, L5A); assay: Antigen-binding test, human CCR8 point mutant; details: in comparison to wild-type hCCR8
T5 construct: expressed in transfected cells; host or cells: Expi293 cells (method similar to that for the wild type)

hCCR8 (T11A) = target: T6, hCCR8 (T11A) (Homo sapiens, UniProt P51685, T11A); assay: Antigen-binding test, human CCR8 point mutant; details: in comparison to wild-type hCCR8
T6 construct: expressed in transfected cells; host or cells: Expi293 cells (method similar to that for the wild type)
From the text: (§2) Further, to analyze in more detail the N-terminal region that is an epitope region common to all clones having strong neutralization, the human CCR8 point mutants shown in Table 2 were produced. […] It is thus considered that the neutralizing antibodies recognize Y at position 17. In addition, although clone No. 8F7 is only shown in Table 2, plural other neutralizing antibodies had reduced binding activity to the mutant in which I at position 20 of human CCR8 is substituted with A (hCCR8 (I20A)). It is thus considered that some neutralizing antibodies have stereo-structural recognition to bind to isoleucine at position 20.

hCCR8 (K35A) = target: T7, hCCR8 (K35A) (Homo sapiens, UniProt P51685, K35A); assay: Antigen-binding test, human CCR8 point mutant; set-up: key: an antibody having significantly reduced binding activity was indicated as A; an antibody having binding activity of the detection limit or less was indicated as x; The blank column means that it exhibits the same binding activity as the wild-type human CCR8 (hCCR8); details: in comparison to wild-type hCCR8
T7 construct: expressed in transfected cells; host or cells: Expi293 cells (method similar to that for the wild type)
From the text: as §2

hCCR8 (I20A) = target: T8, hCCR8 (I20A) (Homo sapiens, UniProt P51685, I20A); assay: Antigen-binding test, human CCR8 point mutant; details: in comparison to wild-type hCCR8
T8 construct: expressed in transfected cells; host or cells: Expi293 cells (method similar to that for the wild type)
From the text: as §2

hCCR8 (I30A) = target: T9, hCCR8 (I30A) (Homo sapiens, UniProt P51685, I30A); assay: Antigen-binding test, human CCR8 point mutant; details: in comparison to wild-type hCCR8
T9 construct: expressed in transfected cells; host or cells: Expi293 cells (method similar to that for the wild type)
From the text: as §2

binding activity, hCCR4 (human CCR4): x | binding activity, mCCR8 (mouse CCR8): x | binding activity, loop1 hCCR4-hCCR8 (loop1 hCCR4-hCCR8): Δ | binding activity, loop2 hCCR4-hCCR8 (loop2 hCCR4-hCCR8): Δ | binding activity, hCCR8 (L5A) (hCCR8 (L5A)): Δ | binding activity, hCCR8 (T11A) (hCCR8 (T11A)): Δ | binding activity, hCCR8 (K35A) (hCCR8 (K35A)): x
B1: 1H4: mouse anti-human CCR8 neutralizing antibody; light chain SEQ ID NO: 29, heavy chain SEQ ID NO: 30 (antibody, V domains shown)
VH: EVQLVESGGRLVQPKGSLKLSCAASGFTFNTYAMYWIRQAPGKGLEWVARIRSKSNNYATYYADSVKDRFTISRDDSQSMLYLQMNNLKTEDTAMYYCVRARFYYSDYGYAMDYWGQGTSVTVSS
VL: DIVMTQAAPSVPVTPGESVSISCRSSKSLLHSNGNTYLYWFLQRPGQSPQLLIYRMSNLASGVPDRFSASGSGTAFTLRISRVEAEDVGVYYCMQHLEYPLTFGAGTKLELKR
modifications: 1H4 VH; 1H4 VL

binding activity, hCCR4 (human CCR4): x | binding activity, mCCR8 (mouse CCR8): x | binding activity, loop2 hCCR4-hCCR8 (loop2 hCCR4-hCCR8): Δ | binding activity, hCCR8 (I20A) (hCCR8 (I20A)): Δ | binding activity, hCCR8 (I30A) (hCCR8 (I30A)): Δ | binding activity, hCCR8 (K35A) (hCCR8 (K35A)): Δ
B2: 8F7: mouse anti-human CCR8 neutralizing antibody; light chain SEQ ID NO: 33, heavy chain SEQ ID NO: 34 (antibody, V domains shown)
VH: EVQLVESGGRLVQPKRSLKLSCAASGFTFNPYAMYWIRQAPGQGLEWVARIRSKSNNYATYYADSVKDRFTISRDDSQSMLYLQMNNLKTEDTAMYYCVRGHQGTMDYWGQGTSVTVSS
VL: B1 VL with I53T, A69G, L101F, A105G, L111I
modifications: 8F7 VH; 8F7 VL
